Where two headings read alike, the source gives them in different places.
Assays:
Assay in all cases: BLI
[1] = biological target: OC43 stem helix peptide (HCoV-OC43)
[2] = biological target: HKU1 stem helix peptide (HCoV-HKU1)
[3] = biological target: SARS-CoV-2 stem helix peptide 1145-[…]-1167 (SARS-CoV-2)
[4] = biological target: MERS-CoV stem helix peptide (MERS-CoV)
[5] = biological target: HCoV-OC43 stem helix peptide (HCoV-OC43)
[6] = biological target: SARS-CoV-2 stem helix peptide 1145-1167 (SARS-CoV-2)
[7] = biological target: MERS-CoV stem helix peptide (MERS-CoV); remark: listed apart in the source
[8] = biological target: HCoV-HKU1 stem helix peptide (HCoV-HKU1)

## CV3-25 Fab
[1]
  Kd: 39.3 nM
  koff: 0.000613 s⁻¹
  kon: 17000 M⁻¹ s⁻¹
[2]
  Kd: 31 nM
  koff: 0.000676 s⁻¹
  kon: 23000 M⁻¹ s⁻¹
[3]
  Kd: 5.23 nM
  koff: 0.000159 s⁻¹
  kon: 30000 M⁻¹ s⁻¹
[4]
  Kd: 20.4 nM
  koff: 0.000669 s⁻¹
  kon: 33000 M⁻¹ s⁻¹
[5]
  Kd: 40 nM
[6]
  Kd: 5.2 nM
[7]
  Kd: 20 nM
[8]
  Kd: 31 nM
